Experiment [1] deals with T1, human PRLR construct with an HA tag on HEK293/hPRLR cells (human, UniProt P16471 25-622).
T1 sequence: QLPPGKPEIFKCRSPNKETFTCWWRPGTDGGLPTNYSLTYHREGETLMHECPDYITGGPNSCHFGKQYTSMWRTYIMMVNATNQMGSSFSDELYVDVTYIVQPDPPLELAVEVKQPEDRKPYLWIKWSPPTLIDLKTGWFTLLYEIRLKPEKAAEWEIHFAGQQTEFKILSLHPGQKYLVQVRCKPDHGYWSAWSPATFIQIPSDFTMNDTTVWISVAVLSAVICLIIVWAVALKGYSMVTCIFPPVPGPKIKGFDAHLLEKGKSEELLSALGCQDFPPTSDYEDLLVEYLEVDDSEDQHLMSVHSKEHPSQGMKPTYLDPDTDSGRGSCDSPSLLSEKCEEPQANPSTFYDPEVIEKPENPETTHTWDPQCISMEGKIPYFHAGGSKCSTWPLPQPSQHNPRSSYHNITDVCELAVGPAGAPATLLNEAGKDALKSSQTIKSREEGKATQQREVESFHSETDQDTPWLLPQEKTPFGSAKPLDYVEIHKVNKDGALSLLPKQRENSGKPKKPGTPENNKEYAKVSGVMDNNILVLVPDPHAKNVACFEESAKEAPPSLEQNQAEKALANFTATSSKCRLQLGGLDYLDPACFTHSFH
Nature of the experiment: FACS on HEK293/hPRLR cells.

Experiment [2] deals with T2, mouse PRLR construct with an HA tag on HEK293/mPRLR cells (mouse, UniProt Q08501 20-608).
T2 construct: whole, on cells; stably transfected into HEK293
T2 sequence (looked up): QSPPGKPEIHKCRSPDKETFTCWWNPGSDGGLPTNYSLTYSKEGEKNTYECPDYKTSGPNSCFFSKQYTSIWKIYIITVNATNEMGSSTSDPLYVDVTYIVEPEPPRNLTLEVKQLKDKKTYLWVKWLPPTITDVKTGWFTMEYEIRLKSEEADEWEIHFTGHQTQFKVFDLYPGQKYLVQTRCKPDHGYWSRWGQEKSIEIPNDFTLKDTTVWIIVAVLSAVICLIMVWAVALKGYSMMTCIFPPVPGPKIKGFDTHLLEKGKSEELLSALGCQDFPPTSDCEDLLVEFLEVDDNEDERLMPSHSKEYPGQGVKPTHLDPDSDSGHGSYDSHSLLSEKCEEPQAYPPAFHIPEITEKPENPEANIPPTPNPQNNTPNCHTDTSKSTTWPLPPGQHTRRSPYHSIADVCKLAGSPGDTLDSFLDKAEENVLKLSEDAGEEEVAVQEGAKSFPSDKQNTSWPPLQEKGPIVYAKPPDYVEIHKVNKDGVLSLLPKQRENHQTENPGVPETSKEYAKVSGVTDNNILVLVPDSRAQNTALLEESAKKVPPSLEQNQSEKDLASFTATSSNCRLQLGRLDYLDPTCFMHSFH
Nature of the experiment: FACS on HEK293/mPRLR cells.

Experiment [3] deals with T3, monkey macaca fascicularis PRLR construct with an HA tag on HEK293/mfPRLR cells (macaca fascicularis, UniProt A0A2K5WXK1 25-619).
T3 construct: stably transfected into HEK293
T3 sequence: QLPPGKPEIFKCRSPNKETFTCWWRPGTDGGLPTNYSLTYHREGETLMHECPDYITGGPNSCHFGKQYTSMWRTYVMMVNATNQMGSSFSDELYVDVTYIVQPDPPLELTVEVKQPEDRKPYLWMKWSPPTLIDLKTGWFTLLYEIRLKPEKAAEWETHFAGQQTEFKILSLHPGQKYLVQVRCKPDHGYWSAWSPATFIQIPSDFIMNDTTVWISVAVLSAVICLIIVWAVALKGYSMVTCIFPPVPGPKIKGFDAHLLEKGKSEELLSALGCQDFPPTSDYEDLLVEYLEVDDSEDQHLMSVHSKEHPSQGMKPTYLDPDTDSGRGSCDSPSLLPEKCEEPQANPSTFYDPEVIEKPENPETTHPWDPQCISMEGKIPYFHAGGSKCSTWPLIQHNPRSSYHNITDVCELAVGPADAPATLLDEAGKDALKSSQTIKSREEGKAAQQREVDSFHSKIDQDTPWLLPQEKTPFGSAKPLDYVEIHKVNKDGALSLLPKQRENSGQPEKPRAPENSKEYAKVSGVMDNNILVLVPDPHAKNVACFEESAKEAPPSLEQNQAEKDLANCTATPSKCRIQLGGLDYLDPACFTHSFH
Nature of the experiment: FACS on HEK293/mfPRLR cells.

B1: H1H6800P (antibody, human IgG1, V domains shown)
VH: EVQLVESGGGLVQPGRSLRLSCAASGFTFDGYAMHWVRQGPGKGLEWVSGISWYSDTLGYADSVKGRFTISRDNAKNSLYLQMNSLRTEDTAFYYCAKISSSGWAFDYWGQGTLVTVSS
VL: EIVLTQSPGTLSLSPGERATLSCRASHSVSSAYLAWYQQKPGQTPRLLIYGTSSRATGIPDRFSGSGSGTDFTLTISRLEPEDFAVYYCQQYGSSPLFTFGPGTKVDIK
notes: human IgG1 Fc (H1H)
As for B1, the “FACS Cell Binding (Fold Above Background)” value in experiment [1] is 35 fold; in experiment [2], 1 fold; in experiment [3], 29 fold.

B2: H1H6976N (antibody, human IgG1, V domains shown)
VH: EVQLLESGGGFVQPGGSLRLSCAASGFTFSSYAMSWVRQAPGKGLEWVSIISSNGRYTYYADSVKGRFTISRDNSKNTLYLQMNSLRAEDTAVYYCATVTGDWFDPWGQGTLVTVSS
VL: DIQLTQSPSFLSASVGDRVTITCWASQDIDISLAWYQQKPGKAPKLLIYAASTLQSGVPSKFSGSGSGTDFTLTISSLQPEDFSTYYCQQLNSYPITFGQGTRLDIK
notes: also called H2M6976N
B2: the “FACS Cell Binding (Fold Above Background)” value was 8 fold in experiment [1], 1 fold in experiment [2] and 29 fold in experiment [3].

B3: H1H6785P (antibody, human IgG1, V domains shown)
VH: EVQLVESGGGLVQPGGSLRLSCAASGFTFSSYEMNWVRQAPGKGLEWISYISSRGGTIYYADSIKGRFTIYRDNARNSLYLQMNSLRAEDTAIYYCARLSGVDIFDIWGQGTMVTVSS
VL: DIQMTQSPSSLSASVGDRVTITCRASQGISNYLAWYQQKPGKVPKLLIYFASTLQSGVPSRFSGGGSGTDFTLTISSLQPEDVATYYCQRYNSAPLTFGGGTKVEIK
notes: human IgG1 Fc (H1H)
Consider B3, for which the entries for the “FACS Cell Binding (Fold Above Background)” value in experiment [1], in experiment [2] and in experiment [3] were 37 fold, 2 fold and 26 fold, respectively.

B4: H1H6781P (antibody, human IgG1, V domains shown)
VH: EVQLVESGGDLVQPGESLRLSCTASGFTFNSYEMNWVRQAPGKGLEWVSYISSSGGTKYYVDSVKGRFTISRDNAKKSLYLQMNSLRADDTALYYCARLNGVDVFDIWGQGTMVTVSS
VL: DIQMTQSPSSLSASVGDRVTITCRASQDIFNYLAWFQQKPGKVPELLISAASTLQSGVPSRFSGSGSGTYFTLTISSLQPEDIATYYCQRYNSAPLTFGGGTKVEIK
notes: human IgG1 Fc (H1H)
Regarding B4, the “FACS Cell Binding (Fold Above Background)” value turned out to be 37 fold in experiment [1], 1 fold in experiment [2] and 26 fold in experiment [3].

B5: H1H6762P (antibody, human IgG1, V domains shown)
VH: QVQLVESGGGVVQPGRSLRLSCAASGFTFSHYGMVWVRQPPGKGLEWVALISFDGTTKYYADSVKGRFTISRDNSKNTLYLQMNSLRAEDTAVYFCVGAIAAAAFDLWGRGTLVTVSS
VL: EIVMTQSPATLSVSPGERATLSCRASQSVSSDLAWYQQKPGQAPRLLIYSASARATGIPARFTGSGSGTDFTLTISSLQSEDFAVYYCQQYNNWPMYTFGQGTKLEIK
notes: human IgG1 Fc (H1H)
In the case of B5, the “FACS Cell Binding (Fold Above Background)” value was found to be 36 fold in experiment [1], 2 fold in experiment [2] and 26 fold in experiment [3].

B6: H1H6958N2 (antibody, human IgG1, V domains shown)
VH: QVQLVESGGGVVQPGRSLRLSCGASGFTFRNYGMQWVRQGPGKGLEWVTLISFDGNDKYYADSVKGRFTISRDNSKNTLFLQMNSLRTEDTAVYYCARGGDFDYWGQGTLVTVSS
VL: DIQMTQSPSSLSASVGDRVTITCRASQDIRKDLGWYQQKPGKAPKRLIYAASSLHSGVPSRFSGSGSGTEFTLTISSLQPEDFATYYCLQHNSYPMYTFGQGTKLEIK
notes: also called H2M6958N2
Turning to B6, the results for the “FACS Cell Binding (Fold Above Background)” value in experiment [1], in experiment [2] and in experiment [3] were 35 fold, 1 fold and 30 fold, respectively.

B7: H1H6975N (antibody, human IgG1, V domains shown)
VH: EVHLVESGGGLVQPGGSLRLSCAASGFTFSSYEMNWVRQTPGKGLEWISHISSRSVIIYYADSVKGRFTISRDNAKNSLFLQMNSLRAEDTAVYFCAGITIFGIPEYWGQGTLVTVSS
VL: EIVLTQSPATLSLSPGERATLSCRASQSVSSYFAWYQQKPGQAPRLLIYDASSRATGIPTRFSGSGSGTDFTLTISSLEPEDFAVYYCQQRSSWPITFGQGTRLEIK
notes: also called H2M6975N
For the molecule B7, the “FACS Cell Binding (Fold Above Background)” value in experiment [1] turned out to be 38 fold; in experiment [2], 1 fold; in experiment [3], 29 fold.

B8: H1H6967N (antibody, human IgG1, V domains shown)
VH: EVQLVESGGDLVHPGRSLRLSCAASGFPFDEYAMHWVRQVPGKGLEWVSGISWSNNNIGYADSVKGRFTISRDNAKNSLYLQMNSLRPEDTAFYYCAKSGIFDSWGQGTLVTVSS
VL: EIVMTQSPATLSVSPGERATLSCRASQSVSRDLAWYQQKPGQAPRLLIHGASTRATGIPARFSGSGSGAEFTLIISSLQSEDFAVYYCQQYNNWPLTFGGGTKVEIK
notes: also called H2M6967N
Take B8: the “FACS Cell Binding (Fold Above Background)” value in experiment [1] came to 38 fold; in experiment [2] it was 2 fold; in experiment [3] it was 28 fold.

B9: H1H6782P (antibody, human IgG1, V domains shown)
VH: EVQLVESGGGLVQPGRSLRLSCAASGFTFDDYAMHWVRQAPGKGLEWVSGIIWNSGHIGYGDSVKGRFTISRDNAKKSLYLQMNSLRAEDTALYYCARDSGRYQSYFDYWGQGTLVTVSS
VL: DIQMTQSPSTLSASVGDRVTITCRASHIISSWLAWYQQKPGKAPKVLIFKASSLESGVPSRFSGSGSGTEFTLTISSLQPDDFATYYCQQYNTYSRTFGQGTKVEIK
notes: human IgG1 Fc (H1H)
In the case of B9, the “FACS Cell Binding (Fold Above Background)” value came out at 41 fold in experiment [1], 4 fold in experiment [2] and 32 fold in experiment [3].

B10: H1H6793P (antibody, human IgG1, V domains shown)
VH: EVQLVESGGGLVQPGGSLRLSCAASGFSFSIYAMSWFRQAPGKGLEWVSAINGRGDGTHYADSVKGRFTISRDNSKTTLYLQMSSLRAEDTAVYYCAKPVMSTNGFDIWGQGTMVTVSS
VL: DIQMTQSPSTLSASVGDRVTITCRASQSISSWLAWYQLKPGKAPKLLIYKASNLESGVPSRFSGSGSGTEFTLTISSLQPDDFATYYCQQYNIYWTFGQGTKVEIK
notes: human IgG1 Fc (H1H)
B10: the “FACS Cell Binding (Fold Above Background)” value was determined as 2 fold in experiment [1], 2 fold in experiment [2] and 32 fold in experiment [3].

B11: H1H6803P (antibody, human IgG1, V domains shown)
VH: EVQLVESGGGVVRPGGSLRLSCAASGFKFDDYGMTWVRHVPGKGLEWVSGINWNGGRTGYTDSVKGRFTISRDNAKNSLYLQMNSLRAEDTALYHCAGARRDAFDIWGQGTMVTVSS
VL: DIQMTQSPSSLSASIGDRVTITCRASQNIIKYLNWYQQNAGKAPKLLIYTASSLQSGVPSRFSGSGSGTDFTLTISSLQPEDFATYYCQQSSSSPYTFGQGTKLEIK
notes: human IgG1 Fc (H1H)
For the molecule B11, the entries for the “FACS Cell Binding (Fold Above Background)” value in experiment [1], in experiment [2] and in experiment [3] were 39 fold, 1 fold and 28 fold, respectively.

B12: H1H6765P (antibody, human IgG1, V domains shown)
VH: EVQLVESGGGVVRPGGSLRLSCVGSGFSFDDHGMNWVRQGPGKGLEWVSGFNWNGGSTNYAESVKGRFTISRDNARNSLFLQMNSLRAEDTALYYCVRGRSGWFNDAFDVWGPGTMVTVSS
VL: EIVLTQSPGTLSLSPGERATLSCRASQTINSNYLAWYRQKPGQTPRLLIYGTSSRATGIPDRFSGSGSGTDFSLTISRLEPEDFAVFYCQQYAGLPTFGPGTKVDIK
notes: human IgG1 Fc (H1H)
With B12, the figures for the “FACS Cell Binding (Fold Above Background)” value in experiment [1], in experiment [2] and in experiment [3] were 38 fold, 1 fold and 27 fold, respectively.

The record behind these values is patent US20180185504A1 (Regeneron, published 2018).
